Columns and labels:
complement C5 [1] = biological target: T1, complement C5 (UniProt P01031 19-1676, limits assumed); assay: cell-based or functional assay
VEGF-A [2] = biological target: T2, VEGF-A (human, UniProt P15692-4 27-191, limits assumed); assay: cell-based or functional assay
VEGF-A [3] = biological target: T2, VEGF-A; assay: direct ELISA, VEGF-A coated 100 ng/well, HRP anti-human Fc detection
complement C5 [4] = biological target: T1, complement C5; assay: direct ELISA, C5 coated 100 ng/well, HRP anti-human Fc detection

T2 sequence (P15692 other isoform, or with tags, fused parts or gaps limits assumed): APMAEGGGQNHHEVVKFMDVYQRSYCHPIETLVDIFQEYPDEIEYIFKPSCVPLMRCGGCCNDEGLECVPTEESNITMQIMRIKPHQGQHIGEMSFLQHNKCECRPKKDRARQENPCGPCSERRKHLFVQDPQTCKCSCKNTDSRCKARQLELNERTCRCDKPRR

B1: bi-functional fusion protein C5V (other)
chain 1: QVQLVQSGAEVKKPGASVKVSCKASGYIFSNYWIQWVRQAPGQGLEWMGEILPGSGSTEYTENFKDRVTMTRDTSTSTVYMELSSLRSEDTAVYYCARYFFGSSPNWYFDVWGQGTLVTVSSASTKGPSVFPLAPCSRSTSESTAALGCLVKDYFPEPVTVSWNSGALTSGVHTFPAVLQSSGLYSLSSVVTVPSSNFGTQTYTCNVDHKPSNTKVDKTVERKCCVECPPCPAPPVAGPSVFLFPPKPKDTLMISRTPEVTCVVVDVSQEDPEVQFNWYVDGVEVHNAKTKPREEQFNSTYRVVSVLTVLHQDWLNGKEYKCKVSNKGLPSSIEKTISKAKGQPREPQVYTLPPSQEEMTKNQVSLTCLVKGFYPSDIAVEWESNGQPENNYKTTPPVLDSDGSFFLYSRLTVDKSRWQEGNVFSCSVMHEALHNHYTQKSLSLSLGGGGSGGGGSGGGGSSDTGRPFVEMYSEIPEIIHMTEGRELVIPCRVTSPNITVTLKKFPLDTLIPDGKRIIWDSRKGFIISNATYKEIGLLTCEATVNGHLYKTNYLTHRQTNTIIDVVLSPSHGIELSVGEKLVLNCTARTELNVGIDFNWEYPSSKHQHKKLVNRDLKTQSGSEMKKFLSTLTIDGVTRSDQGLYTCAASSGLMTKKNSTFVRVHEK
chain 2: DIQMTQSPSSLSASVGDRVTITCGASENIYGALNWYQQKPGKAPKLLIYGATNLADGVPSRFSGSGSGTDFTLTISSLQPEDFATYYCQNVLNTPLTFGQGTKVEIKRTVAAPSVFIFPPSDEQLKSGTASVVCLLNNFYPREAKVQWKVDNALQSGNSQESVTEQDSKDSTYSLSSTLTLSKADYEKHKVYACEVTHQGLSSPVTKSFNRGEC
IC50, inhibition of the alternative complement pathway (hemolysis of rabbit erythrocytes by normal human serum) (complement C5 [1]): 25.3 nM
IC50, inhibition of VEGF-dependent HUVEC proliferation (MTS) (VEGF-A [2]): 0.195 nM
EC50 (VEGF-A [3]): 0.288 nM
EC50 (complement C5 [4]): 3.57 nM

From patent US20200115443A1 (TRICAN BIOTECHNOLOGY, published 2020)
